B1: UGT76G1var28: UGT76G1 variant, mutations L243A_S274G_P382M (protein, UniProt Q6VAB4 1-458, looked up, variant L243A S274G P382M)
UDP-glycosyltransferase 76G1: MENKTETTVRRRRRIILFPVPFQGHINPILQLANVLYSKGFSITIFHTNFNKPKTSNYPHFTFRFILDNDPQDERISNLPTHGPLAGMRIPIINEHGADELRRELELLMLASEEDEEVSCLITDALWYFAQSVADSLNLRRLVLMTSSLFNFHAHVSLPQFDELGYLDPDDKTRLEEQASGFPMLKVKDIKSAYSNWQILKEILGKMIKQTKASSGVIWNSFKELEESELETVIREIPAPSFAIPLPKHLTASSSSLLDHDRTVFQWLDQQPPGSVLYVSFGSTSEVDEKDFLEIARGLVDSKQSFLWVVRPGFVKGSTWVEPLPDGFLGERGRIVKWVPQQEVLAHGAIGAFWTHSGWNSTLESVCEGVPMIFSDFGLDQMLNARYMSDVLKVGVYLENGWERGEIANAIRRVMVDEEGEYIRQNARVLKQKADVSLMKGGSSYESLESLVSYISSL
B2: UGT76G1var31: UGT76G1 variant, mutations E224D_L243P_V300A (protein, UniProt Q6VAB4 1-458, looked up, variant E224D L243P V300A)
UDP-glycosyltransferase 76G1: MENKTETTVRRRRRIILFPVPFQGHINPILQLANVLYSKGFSITIFHTNFNKPKTSNYPHFTFRFILDNDPQDERISNLPTHGPLAGMRIPIINEHGADELRRELELLMLASEEDEEVSCLITDALWYFAQSVADSLNLRRLVLMTSSLFNFHAHVSLPQFDELGYLDPDDKTRLEEQASGFPMLKVKDIKSAYSNWQILKEILGKMIKQTKASSGVIWNSFKDLEESELETVIREIPAPSFPIPLPKHLTASSSSLLDHDRTVFQWLDQQPPSSVLYVSFGSTSEVDEKDFLEIARGLADSKQSFLWVVRPGFVKGSTWVEPLPDGFLGERGRIVKWVPQQEVLAHGAIGAFWTHSGWNSTLESVCEGVPMIFSDFGLDQPLNARYMSDVLKVGVYLENGWERGEIANAIRRVMVDEEGEYIRQNARVLKQKADVSLMKGGSSYESLESLVSYISSL
B3: UGT76G1var30: UGT76G1 variant, mutations I43V_E224A_S241I (protein, UniProt Q6VAB4 1-458, looked up, variant I43V E224A S241I)
UDP-glycosyltransferase 76G1: MENKTETTVRRRRRIILFPVPFQGHINPILQLANVLYSKGFSVTIFHTNFNKPKTSNYPHFTFRFILDNDPQDERISNLPTHGPLAGMRIPIINEHGADELRRELELLMLASEEDEEVSCLITDALWYFAQSVADSLNLRRLVLMTSSLFNFHAHVSLPQFDELGYLDPDDKTRLEEQASGFPMLKVKDIKSAYSNWQILKEILGKMIKQTKASSGVIWNSFKALEESELETVIREIPAPIFLIPLPKHLTASSSSLLDHDRTVFQWLDQQPPSSVLYVSFGSTSEVDEKDFLEIARGLVDSKQSFLWVVRPGFVKGSTWVEPLPDGFLGERGRIVKWVPQQEVLAHGAIGAFWTHSGWNSTLESVCEGVPMIFSDFGLDQPLNARYMSDVLKVGVYLENGWERGEIANAIRRVMVDEEGEYIRQNARVLKQKADVSLMKGGSSYESLESLVSYISSL
B4: UGT76G1var29: UGT76G1 variant, mutations F22Y_V279I_N409R (protein, UniProt Q6VAB4 1-458, looked up, variant F22Y V279I N409R)
UDP-glycosyltransferase 76G1: MENKTETTVRRRRRIILFPVPYQGHINPILQLANVLYSKGFSITIFHTNFNKPKTSNYPHFTFRFILDNDPQDERISNLPTHGPLAGMRIPIINEHGADELRRELELLMLASEEDEEVSCLITDALWYFAQSVADSLNLRRLVLMTSSLFNFHAHVSLPQFDELGYLDPDDKTRLEEQASGFPMLKVKDIKSAYSNWQILKEILGKMIKQTKASSGVIWNSFKELEESELETVIREIPAPSFLIPLPKHLTASSSSLLDHDRTVFQWLDQQPPSSVLYISFGSTSEVDEKDFLEIARGLVDSKQSFLWVVRPGFVKGSTWVEPLPDGFLGERGRIVKWVPQQEVLAHGAIGAFWTHSGWNSTLESVCEGVPMIFSDFGLDQPLNARYMSDVLKVGVYLENGWERGEIARAIRRVMVDEEGEYIRQNARVLKQKADVSLMKGGSSYESLESLVSYISSL
B5: UGT76G1var32: UGT76G1 variant, mutations A239V_L243A_S375M (protein, UniProt Q6VAB4 1-458, looked up, variant A239V L243A S375M)
UDP-glycosyltransferase 76G1: MENKTETTVRRRRRIILFPVPFQGHINPILQLANVLYSKGFSITIFHTNFNKPKTSNYPHFTFRFILDNDPQDERISNLPTHGPLAGMRIPIINEHGADELRRELELLMLASEEDEEVSCLITDALWYFAQSVADSLNLRRLVLMTSSLFNFHAHVSLPQFDELGYLDPDDKTRLEEQASGFPMLKVKDIKSAYSNWQILKEILGKMIKQTKASSGVIWNSFKELEESELETVIREIPVPSFAIPLPKHLTASSSSLLDHDRTVFQWLDQQPPSSVLYVSFGSTSEVDEKDFLEIARGLVDSKQSFLWVVRPGFVKGSTWVEPLPDGFLGERGRIVKWVPQQEVLAHGAIGAFWTHSGWNSTLESVCEGVPMIFMDFGLDQPLNARYMSDVLKVGVYLENGWERGEIANAIRRVMVDEEGEYIRQNARVLKQKADVSLMKGGSSYESLESLVSYISSL
B6: UGT76G1var34: UGT76G1 variant, mutations I43V_T284I_I295T (protein, UniProt Q6VAB4 1-458, looked up, variant I43V T284I I295T)
UDP-glycosyltransferase 76G1: MENKTETTVRRRRRIILFPVPFQGHINPILQLANVLYSKGFSVTIFHTNFNKPKTSNYPHFTFRFILDNDPQDERISNLPTHGPLAGMRIPIINEHGADELRRELELLMLASEEDEEVSCLITDALWYFAQSVADSLNLRRLVLMTSSLFNFHAHVSLPQFDELGYLDPDDKTRLEEQASGFPMLKVKDIKSAYSNWQILKEILGKMIKQTKASSGVIWNSFKELEESELETVIREIPAPSFLIPLPKHLTASSSSLLDHDRTVFQWLDQQPPSSVLYVSFGSISEVDEKDFLETARGLVDSKQSFLWVVRPGFVKGSTWVEPLPDGFLGERGRIVKWVPQQEVLAHGAIGAFWTHSGWNSTLESVCEGVPMIFSDFGLDQPLNARYMSDVLKVGVYLENGWERGEIANAIRRVMVDEEGEYIRQNARVLKQKADVSLMKGGSSYESLESLVSYISSL
B7: UGT76G1var33: UGT76G1 variant, mutations A33G_R334H_Y397Q (protein, UniProt Q6VAB4 1-458, looked up, variant A33G R334H Y397Q)
UDP-glycosyltransferase 76G1: MENKTETTVRRRRRIILFPVPFQGHINPILQLGNVLYSKGFSITIFHTNFNKPKTSNYPHFTFRFILDNDPQDERISNLPTHGPLAGMRIPIINEHGADELRRELELLMLASEEDEEVSCLITDALWYFAQSVADSLNLRRLVLMTSSLFNFHAHVSLPQFDELGYLDPDDKTRLEEQASGFPMLKVKDIKSAYSNWQILKEILGKMIKQTKASSGVIWNSFKELEESELETVIREIPAPSFLIPLPKHLTASSSSLLDHDRTVFQWLDQQPPSSVLYVSFGSTSEVDEKDFLEIARGLVDSKQSFLWVVRPGFVKGSTWVEPLPDGFLGERGHIVKWVPQQEVLAHGAIGAFWTHSGWNSTLESVCEGVPMIFSDFGLDQPLNARYMSDVLKVGVQLENGWERGEIANAIRRVMVDEEGEYIRQNARVLKQKADVSLMKGGSSYESLESLVSYISSL

Assay: Directed evolution of UGT76G1, Rebaudioside D to Rebaudioside M, round 1 (Example 26)
Assay type: biochemical
Details: 100 μL fresh lysate, 0.5 mM Rebaudioside D, 30° C., pH 7.2
Procedure: Lysis was performed by addition of Bugbuster® Master mix (Novagen®) to the thawed cells and the lysate was recovered by centrifugation. Activity tests were performed with 100 μL of fresh lysate that was added to a solution of Rebaudioside D (final concentration 0.5 mM), MgCl2 (final concentration 3 mM) and UDP-Glucose (final concentration 2.5 mM) in 50 mM phosphate buffer pH 7.2.
The reaction was allowed to run at 30° C. and samples were taken after 2, 4, 7 and 24 h. to determine conversion and initial rate by HPLC (CAD detection) using the analytical method that was described above for the transformation of Rebaudioside D to Rebaudioside M. The results are depicted in the following table.

| Molecule | conversion Reb D to Reb M after 24 h | initial rate |
| --- | --- | --- |
| B1 | 6.1% | 2.4E+06 Reb M area/min |
| B2 | 0.4% | 2.4E+05 Reb M area/min |
| B3 | – | 5.6E+06 Reb M area/min |
| B4 | 41.0% | 2.9E+07 Reb M area/min |
| B5 | 0.0% | −4.4E+04 Reb M area/min |
| B6 | 3.4% | 1.5E+06 Reb M area/min |
| B7 | 1.0% | 7.5E+06 Reb M area/min |

— patent US11653679B2, “High-purity steviol glycosides” (PureCircle Sdn Bhd, priority 2014, dated 2023)
